B1: Plasmodium vivax cytoplasmic phenylalanyl-tRNA synthetase (PvcFRS) alpha subunit (PVX_081300) (enzyme)
chain: MQAKAQEEQKGEELSQFLQALEEEFALCQEGGGDKREADGPSLENAEAEELANRRAYYLQLKEERNVLVEESKHVTSLHMSSKHNIEHAKVLGMAKKLETLYYVVNHVRSFNTYQLTEEGKEYLRDGSPEHVTLRYVMEQEGCTLEDLKKLFGKKGEIGLNINLKKKKIELRKSDKRLFPHVEGSAHSLVDETRCYLQKVEAHGNDEGALVSHLKGILPPEKGEKKEEDEANNLIKELKKRKLIEAKKISYIYIIRTNLFTKEIKKQITDLTYLLIKNEEYKKYQVKKYNFFSSGKKMNKGNIHLLIRQMRTFKDVFVSLGFEEMNTHNYVESSFWCFDALYIPQQHPSRDLQDTFFIKVPEMCQEEFTDQSYIENVKRVHSVGDYGSFGWNYQWELKSTKKNVLRTHTTANSCRALFQLAKEYQKTGSIIPKKFFSIDRVFRNENLDSTHLAEFHQVEGLIIDRNLGLSHLIGTLSAFYKYIGISKLRFKPTFNPYTEPSMEVYGYHEENKKWLEVGNSGIFRPEMLRAMGFPPEVSVIAWGLSLERPTMIKYSIRNIRDLFGYRSVI
notes: Said to be full-length; Tag residues from the vector are not described; Two copies stand in the α2β2 heterotetramer; Residues 1-270 were disordered in the crystal; also called PvcFRS α subunit; PvFRS α subunit
B2: Plasmodium falciparum cytoplasmic phenylalanyl-tRNA synthetase (PfcFRS) alpha subunit (enzyme)
chain: MSTNNVEEKKNEELYNLLNILEEEFNLSKIENKNNNKNDDGDDDDVNKREDNNNNEYYKKLKDEKGLDVLINEYTTSLKISKKYNIDHNKVMGMIKKLETLYYIINLIKSFNTYHLSDEGKQYLKEGSPEFIVIKYVIQNNKCTLEDLKKNLGKIGDIGLNTNLKNRTIQLNKADKCLTCNCNLHDIQDFTQIYLDIINQYGHDEELLFAHLKNKNHTKNALNNNEMKNSCKDNNIINNLIQDLKKRKLLEIKKNSYSHVIKTSIFKKDIKKQITDINYLLLKNEEYKKYDIKKYNFFSSGKKINKGNIHLLTKQMRTFKEIFFSLGFEEMETHNYVESSFWCFDALYIPQQHPSRDLQDTFFIKEPETCIDKFVDTEYIDNIKRVHTHGDYGSFGWNYKWKLEESKKNVLRTHTTANSCRALFKLAKEYKEAGCIKPKKYFSIDRVFRNENLDSTHLAEFHQVEGLIIDKNIGLSHLIGTLAAFYKHIGIHKLKFKPTFNPYTEPSMEIYGYHEQSKKWLEVGNSGIFRPEMLRSMGFSEEVSVIAWGLSLERPTMIKYNIKNIRDLFGYKSVV
notes: Tags are not described; also called PfcFRS α subunit

Tests used:
[1] = biological target: T1, Plasmodium vivax cytoplasmic phenylalanyl-tRNA synthetase (PvcFRS) beta subunit (PVX_090880) (Plasmodium vivax, UniProt A5K464 1-617); assay: analytical gel filtration (Superdex 200) of co-expressed, co-purified alpha and beta subunits
T1 construct: Said to be full-length; Tag or fusion residues from the vector are not described; Two copies stand in the α2β2 heterotetramer; also called PvcFRS β subunit; PvFRS β subunit
T1 sequence: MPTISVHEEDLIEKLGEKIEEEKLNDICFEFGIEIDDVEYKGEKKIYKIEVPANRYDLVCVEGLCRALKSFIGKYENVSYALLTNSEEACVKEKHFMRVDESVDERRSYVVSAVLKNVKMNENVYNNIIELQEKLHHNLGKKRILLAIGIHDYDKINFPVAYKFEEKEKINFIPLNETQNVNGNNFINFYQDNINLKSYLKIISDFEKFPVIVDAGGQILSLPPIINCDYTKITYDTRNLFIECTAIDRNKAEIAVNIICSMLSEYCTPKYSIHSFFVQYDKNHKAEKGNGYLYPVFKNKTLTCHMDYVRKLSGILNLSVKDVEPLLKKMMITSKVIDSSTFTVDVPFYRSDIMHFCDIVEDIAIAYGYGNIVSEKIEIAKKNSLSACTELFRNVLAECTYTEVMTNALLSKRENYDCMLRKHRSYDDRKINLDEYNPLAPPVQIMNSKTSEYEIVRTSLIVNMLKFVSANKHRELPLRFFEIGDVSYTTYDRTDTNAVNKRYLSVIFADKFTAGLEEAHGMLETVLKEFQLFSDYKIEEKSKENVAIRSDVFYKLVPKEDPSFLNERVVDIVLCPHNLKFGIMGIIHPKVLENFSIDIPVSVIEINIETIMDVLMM

[2] = biological target: T2, Plasmodium falciparum cytoplasmic phenylalanyl-tRNA synthetase (PfcFRS) beta subunit (Plasmodium falciparum); assay: SDS-PAGE of the final purified protein (co-purification of the α and β subunits)
T2 construct: Tags are not described; also called PfcFRS β subunit; Pf-β
T2 chain: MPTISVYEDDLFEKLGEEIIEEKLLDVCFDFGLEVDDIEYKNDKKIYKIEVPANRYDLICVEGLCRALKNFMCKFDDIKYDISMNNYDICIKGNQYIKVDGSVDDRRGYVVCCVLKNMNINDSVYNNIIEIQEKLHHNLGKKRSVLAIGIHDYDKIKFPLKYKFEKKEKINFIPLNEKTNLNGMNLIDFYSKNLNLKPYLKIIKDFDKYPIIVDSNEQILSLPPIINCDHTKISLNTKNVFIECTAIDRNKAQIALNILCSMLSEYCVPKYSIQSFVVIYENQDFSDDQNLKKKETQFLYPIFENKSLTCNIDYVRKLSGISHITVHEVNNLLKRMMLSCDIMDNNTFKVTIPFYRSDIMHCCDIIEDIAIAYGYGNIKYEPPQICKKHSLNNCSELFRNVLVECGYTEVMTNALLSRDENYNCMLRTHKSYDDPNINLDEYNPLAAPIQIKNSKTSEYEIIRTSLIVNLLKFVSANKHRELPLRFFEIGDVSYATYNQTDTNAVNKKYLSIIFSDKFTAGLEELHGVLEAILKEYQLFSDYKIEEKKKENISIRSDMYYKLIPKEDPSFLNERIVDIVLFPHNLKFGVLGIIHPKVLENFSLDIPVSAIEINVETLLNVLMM

Binder	binding result [1]	binding result [2]
B1	binds	
B2		binds

Source: patent US20230279018A1, “AP[…] INHIBITION” (priority 2020, published 2023)
